Measured values as given in article PMC8277605, “Binding of gephyrin to microtubules is regulated by its phosphorylation at Ser270” (Histochemistry and Cell Biology, 2021).

Key:
[1] = target: microtubules polymerized from endogenous tubulin of HEK293T cell extracts (human (endogenous in HEK293T)) (UniProt P68363); assay: co-sedimentation; MT co-sedimentation assay with HEK293T lysates only (gephyrin alone, gephyrin or mutant gephyrin with CbII(-SH3)); endogenous cellular tubulin polymerized with 2 mM GTP and 20 uM paclitaxel in MES buffer; 100,000 x g; immunoblot with mAb7a, R-20, DM1alpha; band ratios standardized to the tubulin signal
[2] = target: the molecule itself; assay: native gel or EMSA; blue-native PAGE of 100 ug cytosol per lane, second dimension 12.5% SDS-PAGE, Western blot for gephyrin; NativeMARK standard

microtubules polymerized from endogenous tubulin of HEK293T cell extracts (human (endogenous in HEK293T)), sequence (P68363 whole entry, chain 1 of 2): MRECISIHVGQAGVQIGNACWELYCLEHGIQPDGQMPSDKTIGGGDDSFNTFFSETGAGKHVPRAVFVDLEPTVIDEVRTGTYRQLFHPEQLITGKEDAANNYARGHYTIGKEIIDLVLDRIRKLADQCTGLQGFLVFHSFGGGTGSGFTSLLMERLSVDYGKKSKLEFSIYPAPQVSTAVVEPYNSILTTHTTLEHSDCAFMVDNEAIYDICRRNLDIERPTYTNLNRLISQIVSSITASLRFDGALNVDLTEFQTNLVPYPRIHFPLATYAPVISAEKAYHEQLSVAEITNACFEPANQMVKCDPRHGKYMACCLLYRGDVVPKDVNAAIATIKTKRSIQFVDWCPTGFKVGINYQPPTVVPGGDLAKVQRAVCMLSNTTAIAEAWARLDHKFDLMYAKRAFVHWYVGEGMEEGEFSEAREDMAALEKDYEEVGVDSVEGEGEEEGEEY
microtubules polymerized from endogenous tubulin of HEK293T cell extracts (human (endogenous in HEK293T)), sequence (P07437 whole entry, chain 2 of 2, further chain): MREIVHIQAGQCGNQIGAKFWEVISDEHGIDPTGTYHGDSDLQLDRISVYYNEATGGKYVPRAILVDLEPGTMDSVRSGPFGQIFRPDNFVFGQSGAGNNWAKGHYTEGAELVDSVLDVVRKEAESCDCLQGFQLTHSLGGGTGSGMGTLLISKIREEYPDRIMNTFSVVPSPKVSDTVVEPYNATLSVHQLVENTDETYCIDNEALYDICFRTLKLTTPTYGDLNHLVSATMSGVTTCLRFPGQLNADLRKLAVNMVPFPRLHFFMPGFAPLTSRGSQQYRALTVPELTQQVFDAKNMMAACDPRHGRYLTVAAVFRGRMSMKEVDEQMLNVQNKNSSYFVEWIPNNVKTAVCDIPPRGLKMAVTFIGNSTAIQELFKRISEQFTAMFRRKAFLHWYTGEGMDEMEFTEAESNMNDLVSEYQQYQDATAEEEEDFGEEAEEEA

Molecule | ratio of the mAb7a signal in the insoluble to soluble fraction [1] | stoichiometry N [2]
recombinant gephyrin (P1) phosphorylated at Ser270 (detected by mAb7a) (natural protein) | 0.17 | 
recombinant gephyrin (P1), N-terminally 6-histidine-tagged (natural protein) | 1.5 | 
gephyrin from liver tissue (natural protein, UniProt Q03555 1-768, looked up, gephyrin endogenous in liver tissue; source: endogenous, liver protein extract) MATEGMILTNHDHQIRVGVLTVSDSCFRNLAEDRSGINLKDLVQDPSLLGGTISAYKIVPDEIEEIKETLIDWCDEKELNLILTTGGTGFAPRDVTPEKFPTFPFCGLQKGATKEVIEREAPGMALAMLMGSLNVTPLGMLSRPVCGIRGKTLIINLPGSKKGSQECFQFILPALPHAIDLLRDAIVKVKEVHDELEDLPSPPPPLSPPPTTSPHKQTEDKGVQCEEEEEEKKDSGVASTEDSSSSHITAAALAAKIPDSIISRGVQVLPRDTASLSTTPSESPRAQATSRLSTASCPTPKQIRRPDESKGVASRVGSLKVQSRCSSKENILRASHSAVDITKVARRHRMSPFPLTSMDKAFITVLEMTPVLGTEIINYRDGMGRVLAQDVYAKDNLPPFPASVKDGYAVRAADGPGDRFIIGESQAGEQPTQTVMPGQVMRVTTGAPIPCGADAVVQVEDTELIRESDDGTEELEVRILVQARPGQDIRPIGHDIKRGECVLAKGTHMGPSEIGLLATVGVTEVEVNKFPVVAVMSTGNELLNPEDDLLPGKIRDSNRSTLLATIQEHGYPTINLGIVGDNPDDLLNALNEGISRADVIITSGGVSMGEKDYLKQVLDIDLHAQIHFGRVFMKPGLPTTFATLDIDGVRKIIFALPGNPVSAVVTCNLFVVPALRKMQGILDPRPTIIKARLSCDVKLDPRPEYHRCILTWHHQEPLPWAQSTGNQMSSRLMSMRSANGLLMLPPKTEQYVELHKGEVVDVMVIGRL |  | 6
gephyrin, endogenous in HEK293T cells (natural protein, human (endogenous in HEK293T), UniProt Q9NQX3 1-736, looked up, human gephyrin, endogenous in HEK293T cells; also called endogenous gephyrin; source: endogenous, HEK293T protein extract (cytosol)) MATEGMILTNHDHQIRVGVLTVSDSCFRNLAEDRSGINLKDLVQDPSLLGGTISAYKIVPDEIEEIKETLIDWCDEKELNLILTTGGTGFAPRDVTPEATKEVIEREAPGMALAMLMGSLNVTPLGMLSRPVCGIRGKTLIINLPGSKKGSQECFQFILPALPHAIDLLRDAIVKVKEVHDELEDLPSPPPPLSPPPTTSPHKQTEDKGVQCEEEEEEKKDSGVASTEDSSSSHITAAAIAAKIPDSIISRGVQVLPRDTASLSTTPSESPRAQATSRLSTASCPTPKVQSRCSSKENILRASHSAVDITKVARRHRMSPFPLTSMDKAFITVLEMTPVLGTEIINYRDGMGRVLAQDVYAKDNLPPFPASVKDGYAVRAADGPGDRFIIGESQAGEQPTQTVMPGQVMRVTTGAPIPCGADAVVQVEDTELIRESDDGTEELEVRILVQARPGQDIRPIGHDIKRGECVLAKGTHMGPSEIGLLATVGVTEVEVNKFPVVAVMSTGNELLNPEDDLLPGKIRDSNRSTLLATIQEHGYPTINLGIVGDNPDDLLNALNEGISRADVIITSGGVSMGEKDYLKQVLDIDLHAQIHFGRVFMKPGLPTTFATLDIDGVRKIIFALPGNPVSAVVTCNLFVVPALRKMQGILDPRPTIIKARLSCDVKLDPRPEYHRCILTWHHQEPLPWAQSTGNQMSSRLMSMRSANGLLMLPPKTEQYVELHKGEVVDVMVIGRL |  | 6
gephyrin, endogenous in U2OS cells (natural protein, human (endogenous in U2OS), UniProt Q9NQX3 1-736, looked up, human gephyrin, endogenous in U2OS osteosarcoma cells; also called endogenous gephyrin; source: endogenous, U2OS protein extract (cytosol)) MATEGMILTNHDHQIRVGVLTVSDSCFRNLAEDRSGINLKDLVQDPSLLGGTISAYKIVPDEIEEIKETLIDWCDEKELNLILTTGGTGFAPRDVTPEATKEVIEREAPGMALAMLMGSLNVTPLGMLSRPVCGIRGKTLIINLPGSKKGSQECFQFILPALPHAIDLLRDAIVKVKEVHDELEDLPSPPPPLSPPPTTSPHKQTEDKGVQCEEEEEEKKDSGVASTEDSSSSHITAAAIAAKIPDSIISRGVQVLPRDTASLSTTPSESPRAQATSRLSTASCPTPKVQSRCSSKENILRASHSAVDITKVARRHRMSPFPLTSMDKAFITVLEMTPVLGTEIINYRDGMGRVLAQDVYAKDNLPPFPASVKDGYAVRAADGPGDRFIIGESQAGEQPTQTVMPGQVMRVTTGAPIPCGADAVVQVEDTELIRESDDGTEELEVRILVQARPGQDIRPIGHDIKRGECVLAKGTHMGPSEIGLLATVGVTEVEVNKFPVVAVMSTGNELLNPEDDLLPGKIRDSNRSTLLATIQEHGYPTINLGIVGDNPDDLLNALNEGISRADVIITSGGVSMGEKDYLKQVLDIDLHAQIHFGRVFMKPGLPTTFATLDIDGVRKIIFALPGNPVSAVVTCNLFVVPALRKMQGILDPRPTIIKARLSCDVKLDPRPEYHRCILTWHHQEPLPWAQSTGNQMSSRLMSMRSANGLLMLPPKTEQYVELHKGEVVDVMVIGRL |  | 6
